Data set [1] is described as follows: Repeat-dose intravenous administration in cynomolgus monkey. The class given is in vivo. As to the method:
The monkey used in this study was purpose-bred, treatment-naïve, and housed and treated at Charles River Laboratories in Reno, Nev., in accordance with US FDA GLP regulations. The target age and weight of the animal at time of dosing was 2 to 4 years and 2.5 to 3.5 kg, respectively, and the animal used on study was female. HER2-TLR8 was evaluated on a repeat dose schedule as follows: 1 mg/kg was dosed on Day 1, followed by a 7.5 mg/kg dose administered one week later on Day 8 and a third 7.5 mg/kg dose administered three weeks later on Day 29. After each dose, the animal was observed cage-side for clinical signs and symptoms associated with dosing. […] This animal was euthanized due to the rapid onset of clinical signs of pale mucus membranes and face, hunched posture, decreased activity, hypothermia (as assessed by being cool to the touch), and labored, shallow breathing. These clinical signs presented within 2.5 hour following dosing on Day 29.

A short description of data set [2]: Repeat-dose subcutaneous administration in cynomolgus monkey. The data set is classed as in vivo. Conditions: SC. The protocol: The monkey used in this study was purpose-bred, treatment-naïve, and housed and treated at Charles River Laboratories in Reno, Nev., in accordance with US FDA GLP regulations. The target age and weight of the animal at time of dosing was 2 to 4 years and 2.5 to 3.5 kg, respectively, and the animal used on study was female. HER2-TLR8 was evaluated on a repeat dose schedule as follows: 2 mg/kg dose was subcutaneously administered on a Q2W dosing schedule over 4 dosing cycles, 6 mg/kg was subcutaneously administered on a Q3W dosing schedule over 4 dosing cycles and 12 mg/kg was subcutaneously administered on a Q3W dosing schedule over 4 dosing cycles. After each dose, the animal was observed cage-side for clinical signs and symptoms associated with dosing.

In the next data set the test system is C-reactive protein (CRP). In words: Pharmacodynamic response (CRP) after repeat SC dosing in non-human primates. The class given is in vivo, cynomolgus monkey. Conditions: repeat-dose SC, 2, 6 and 12 mg/kg. The text has this:
Blood samples were collected by venous puncture at various timepoints and analyzed for blood chemistries, including C-reactive protein (CRP), using a standard blood analyzer.

A short description of data set [3]: Single-dose pharmacokinetic profile in cynomolgus monkey (serum ELISA). The data set is classed as in vivo. The protocol: The pharmacokinetic profile of a single dose of HER2-TLR8 administered subcutaneously at 2, 6, or 12 mg/kg or intravenously at 7.5 mg/kg in cynomolgus monkey was studied. Blood was collected by venous puncture at a series of timepoints pre and post-dosing. Serum was prepared and HER2-TLR8 was measured by an ELISA assay in which serum samples were added to an assay plate coated with recombinant HER2 and HER2-TLR8 was detected using a labelled antibody directed against the TLR8 payload.
In general terms: ELISA stands for enzyme-linked immunosorbent assay.

A further data set relates to BMDM + SK-BR-3 (HER2pos). Kind of data set: mTNFα from bone marrow derived macrophages co-cultured with SK-BR-3. The class given is cell-based, mouse. Conditions: 24 hours; conjugate 100-0.001 nM, payload 1000-0.001 nM; HER2pos SK-BR-3. As to the method:
(§1) The ability of an anti-HER2-TLR7 conjugate to specifically activate mouse macrophages when bound to tumor cells by HER2 was assessed in vitro as follows. Bone marrow cells were harvested from BALB/cJ mouse femurs and tibias using a 27-gauge needle attached to a 3 mL syringe filled with growth media (DMEM supplemented with 10% Fetal Bovine Serum, 1 mM Sodium Pyruvate, 1× GlutaMAX-1, 1× Non-Essential Amino Acids, 10 mM HEPES and 0.5% Penicillin/Streptomycin). Bone marrow cells were centrifuged, and RBC were lysed before being counted and resuspended at a concentration 5×10^5/mL in growth media. Ten mL of cell suspension was placed in 10 cm dishes and 20 ng/mL murine macrophage-colony-stimulating factor (mM-CSF) was added. […] Bone marrow derived macrophage cells lines (BMDM) and tumor cell lines SK-BR-3 (HER2pos) or MDA-MB-468 (HER2neg) were removed from plates with Accutase cell detachment solution and counted. […]
(§2) After culture, supernatants were collected and frozen at −80° C. until cytokine analysis was performed. Murine TNFα (mTNFα) levels in the supernatant were determined by mTNFα ELISA Kit (BioLegend) and read on an Envision Plate Reader (Perkin Elmer, Waltham, Mass.) according to manufacturer's instructions. mTNFα levels were then graphed using GraphPad Prism 7.01 software (GraphPad Software, San Diego, Calif.) and EC50 values were generated using non-linear regression curve fit.

Data set [4] deals with BMDM + MDA-MB-468 (HER2neg). In words: mTNFα from bone marrow derived macrophages co-cultured with MDA-MB-468. The data set is classed as cell-based, mouse. The following applies: 24 hours; conjugate 100-0.001 nM, payload 1000-0.001 nM; HER2neg MDA-MB-468. The protocol:
as §1, §2

The conditions of data set [5]: 10 μg per mouse, 5 minutes following second dose of HER2-TLR7 5 mg/kg.
Method: Rectal temperatures and clinical scores were assessed as previously shown.

This is an account of results in patent US20200113912A1, “Methods and Compositions for the Treatment of Disease with Immune Stimulatory Conjugates” (Silverback Therapeutics, Inc., priority 2018, published 2020).

A value given as a limit tells only on which side of the number the result lay.

One may read the AUC as concentration integrated over time. `CCCN(CCC)C(=O)C1=Cc2ccc(C(=O)Nc3cnc4c(c3)CN(C(=O)OCc3ccc(NC(=O)[C@H](CCCNC(N)=O)NC(=O)[C@@H](NC(=O)CCCCCN5C(=O)C=CC5=O)C(C)C)cc3)CC4)cc2N=C(N)C1` [HER2-TLR8]: the “anaphylaxis-like response after the first two doses” value in data set [1] (IV bolus, 1 mg/kg Day 1 and 7.5 mg/kg Day 8) is reported as “did not produce an anaphylaxis-like response”. The “outcome of the third intravenous dose” value in data set [1] (IV bolus, 7.5 mg/kg Day 29) is given as “resulted in mortality”. Moreover, the “time to presentation of clinical signs following dosing” value in data set [1] (third IV dose, 7.5 mg/kg Day 29) is at most 2.5 h. The tolerability result in data set [2] (2 mg/kg Q2W, 6 mg/kg Q3W, 12 mg/kg Q3W, 4 dosing cycles) is “well-tolerated at all dose levels and through all dosing cycles”. The “clinical anaphylaxis-like signs or symptoms” value in data set [2] (first or repeat dose at any dose level (2, 6, 12 mg/kg)) is on record as “No clinical, anaphylaxis-like signs or symptoms were observed”. Besides, the “C-reactive protein (CRP) in blood” value in the data set on C-reactive protein (CRP) is reported as “consistent, modest elevation of C-reactive protein (CRP) with each dosing cycle”. For the same molecule, the AUC in data set [3] (7.5 mg/kg, IV, 7.5 mpk) stood at 3770 µg·h/mL; in data set [3] (subcutaneous, 2 mg/kg, SubC, 2 mpk), 714 µg·h/mL; in data set [3] (subcutaneous, 6 mg/kg, SubC, 6 mpk), 2400 µg·h/mL; in data set [3] (subcutaneous, 12 mg/kg, SubC, 12 mpk), 3650 µg·h/mL.

Turning to `CCOCc1nc2c(N)nc3ccccc3c2n1CC(C)(C)OCCNC(=O)C(C)(C)N` [TLR7 payload compound], the “activation of macrophages (mTNFα in supernatant)” value (in the data set on BMDM + SK-BR-3 (HER2pos); in data set [4]) was “capable of potently activating the macrophages in the presence of both cell lines” each time.

Regarding `CNC[C@H](O)c1ccc(O)c(O)c1` [epinephrine], in data set [5], the “effect on toxicity of second IV dose of HER2-TLR7” value was “mitigates the toxicity”.
